Assay results as given in paper PMC5105163.

Biological target: HLA-DM, P28067;P28068
Assay: SPR
Details: parent DR1/CW trace is at 10 µM, parent: est. 0, read off a plot

Substance: HLA-DR1/CLIP_(102-120)M107W complex (from UniProt P04233) βE87P
- response (10 µM DR1-βE87P/CW analyte over immobilised DM): 50 RU

Substance: HLA-DR1/CLIP_(102-120)M107W complex (from UniProt P04233) βG84P; βE87P
- response (5 µM DR1-βG84PβE87P/CW analyte over immobilised DM): 270 RU
